We go through four molecules from patent US10876098B2, “Polynucleotide, host cell and a method to recombinantly produce the protein encoded by said polynucleotide having peroxygenative activity” (CONSEJO SUPERIOR DE INVESTIGACIONES CIENTIFICAS (CSIC), priority 2015, dated 2020).

Substrate in series [1]: OO
Kind of series: purified protein, by the assay type. The note with it: other: H2O2, benzyl alcohol as substrate at saturation, pH 7.0.

Substrate in series [2]: CCn1c(=NN=c2sc3cc(S(=O)(=O)O)ccc3n2CC)sc2cc(S(=O)(=O)O)ccc21
Kind of series: purified protein, by the assay type. As to conditions: other: 100 mM sodium phosphate/citrate pH 4.0, 2 mM H2O2 (ABTS); pH 4.0.

Substrate in series [3]: CC(C)NCC(O)COc1cccc2ccccc12
Kind of series: purified protein, by the assay type.

Another series in a line: Optimum pH for ABTS. It counts as biochemical.
A short description of series [4]: Isoelectric point by two-dimensional electrophoresis. The series is classed as physicochemical. As to the method: The analyses were performed using an Autoflex III MALDI-TOF-TOF unit with smartbeam laser (Bruker Daltonics). The samples were evaluated in positive mode. The method was calibrated using BSA with standard, thereby covering a range of 15,000 to 70,000 Da. In order to determine the isoelectric point of the UPO variants, 8 μg of pure enzyme were subjected to two-dimensional electrophoresis. These experiments were carried out at the Proteomic and Genomic Service of the Biological Research Centre (CIB-CSIC, Spain).

A short description of series [5]: Thermostability assay (T50), culture supernatants, residual activity with ABTS. It counts as physicochemical. The note with it: culture supernatants; temperature at which the enzyme retains 50% of its activity after 10 minutes of incubation. As to the method:
An individual S. cerevisiae colony was selected with the corresponding clone (grown in a SC drop-out minimal medium plate: 100 mL of 6.7% yeast nitrogen base, 100 mL of 19.2 g/L uracil-free amino acid supplement, 100 mL of 20% glucose, 1 mL of 25 g/L chloramphenicol and ddH2O up to 1,000 mL) was inoculated in 2 mL of selective minimal medium (as in the SC plate medium, but with 20 g of bacto agar and rafinose instead of galactose) and was incubated for 48 hour at 30° C. and 220 RPM. An aliquot of this culture was taken such that, upon inoculating it in 5 mL of new minimal medium, optical density at 600 nm would have a value of 0.25 (optical density, OD600=0.25). This starter was incubated until completing two full growth cycles (between 6 and 8 hours), at which time 1 mL of cells were taken to inoculate 9 mL of expression medium in a 100 mL flask (OD600=0.1). This culture of each clone was incubated for 72 hours at 25° C. and 220 RPM (at peak UPO activity; OD600=25-30), the cells were separated by centrifugation (10 minutes at 4,500 RPM and 4° C.) and supernatant was filtered (using a glass and nitrocellulose filter with a pore size of 0.45 μm). Appropriate dilutions of the supernatants were prepared so that aliquots of 20 μL would give rise to a linear response in kinetic mode. 50 μL of supernatant were used for each point in a temperature gradient created by means of thermocyclator, from 30 to 80° C. After incubating for 10 minutes, the aliquots were cooled in ice for 10 minute and tempered at room temperature for 5 minutes. […] The thermostability values were calculated in accordance with the ratio between the residual activities incubated at different temperatures and the value of initial activity at room temperature. The value of T50 was determined as the value of the temperature at which the protein loses 50% of it initial activity after incubating for 10 minutes.
An individual S. cerevisiae colony was selected with the corresponding clone (grown on a SC drop-out minimal medium plate: 100 mL of 6.7% yeast nitrogen base, 100 mL of 19.2 g/L uracil-free amino acid supplement, 100 mL of 20% glucose, 1 mL of 25 g/L chloramphenicol and ddH2O up to 1,000 mL), was inoculated in 3 mL of selective minimal medium (like the SC plate medium, but with 20 g of bacto agar and rafinose instead of galactose) and incubated for 48 hours at 30° C. and 220 RPM. […] The thermostability values were calculated in accordance with the ratio between the residual activities incubated at different temperatures and the value of initial activity at room temperature. The value of T50 was determined as as the temperature value at which the protein loses 50% of its initial activity after incubating for […].

A short description of series [6]: Optimum pH for naphthalene. The series is classed as biochemical.
The nature of another series: Optimum pH for DMP. The series is classed as biochemical.
The nature of series [7]: Naphthalene transformation reaction analysed by HPLC-PDA. It counts as biochemical. As to the method: A) Products formed after 15 minutes of reaction stopped with 20 μL of HCl 37% (PaDa-I, black bars; JaWa, grey bars). […] C) and D) Monitoring of the reaction for 270 minutes (without adding HCl) for the PaDa-I (C) and JaWa (D) mutants.
The reactions were analysed by means of chromatography in reverse phase (HPLC). The equipment is composed by a tertiary pump (Varian-Agilent Technologies, USA) coupled to an autosampler (Merck Millipore, MA, USA); an ACE C18 PFP column was used for separation (pentafluorophenyl, 15 cm×4.6 cm) at 45° C. and detection was performed using a photodiode detector (PDA) (Varian-Agilent Technologies, USA). The mobile phase selected was 70% methanol and 30% ddH2O (in both cases with 0.1% of acetic acid) at a flow rate of 0.8 mL/min. The reaction was quantified at 268 nm (based on standard HPLCs). […] For long reaction times, the conditions used were those described earlier but without stopping the reaction with HCl. A sample of 10 μL was injected and analysed at different reaction times (from 1 to 270 minutes).

Setting [8] is: other: 100 mM potassium phosphate pH 7.0, 2 mM H2O2 (propranolol).
Where [9] appears, read: other: 100 mM potassium phosphate pH 7.0, 2 mM H2O2 (DMP, propranolol).
The mark [10] stands for this setting: 15 minutes of reaction stopped with HCl, 6.6 nM enzyme, 1 mM naphthalene, 1 mM H2O2.

B1: Agrocybe aegerita unspecific peroxygenase AaeUPO1 (UPO, EC 1.11.2.1), wild type, SEQ ID NO: 2 (SEQ ID NO: 4 with wild-type signal peptide) (Cyclocybe aegerita) (protein)
chain: EPGLPPGPLENSSAKLVNDEAHPWKPLRPGDIRGPCPGLNTLASHGYLPRNGVATPVQIINAVQEGLNFDNQAAVFATYAAHLVDGNLITDLLSIGRKTRLTGPDPPPPASVGGLNEHGTFEGDASMTRGDAFFGNNHDFNETLFEQLVDYSNRFGGGKYNLTVAGELRFKRIQDSIATNPNFSFVDFRFFTAYGETTFPANLFVDGRRDDGQLDMDAARSFFQFSRMPDDFFRAPSPRSGTGVEVVIQAHPMQPGRNVGKINSYTVDPTSSDFSTPCLMYEKFVNITVKSLYPNPTVQLRKALNTNLDFFFQGVAAGCTQVFPYGRD
As to B1, in [1], the Km is listed as 1,370 ± 162 μM, the kcat stood at 290 s⁻¹ and the kcat/Km stood at 210000 M⁻¹ s⁻¹. Moreover, in series [2], the Km was 25-0 ± 2.5 μM, the kcat turned out to be 221 s⁻¹ and the kcat/Km was determined as 8.8e+06 M⁻¹ s⁻¹. Moreover, in [3] (setting [8]), the Km is on record as 2,239 ± 333 μM, the kcat is 150 ± 12 s⁻¹ and the kcat/Km is 67000 ± 4800 M⁻¹ s⁻¹.

B2: Agrocybe aegerita peroxygenase AaeUPO1 variant JaWa (PaDa-I + G241D, R257K: V57A, L67F, V75I, G241D, I248V, R257K, F311L), SEQ ID NO: 24 (Cyclocybe aegerita; … (protein)
chain: EPGLPPGPLENSSAKLVNDEAHPWKPLRPGDIRGPCPGLNTLASHGYLPRNGVATPAQIINAVQEGFNFDNQAAIFATYAAHLVDGNLITDLLSIGRKTRLTGPDPPPPASVGGLNEHGTFEGDASMTRGDAFFGNNHDFNETLFEQLVDYSNRFGGGKYNLTVAGELRFKRIQDSIATNPNFSFVDFRFFTAYGETTFPANLFVDGRRDDGQLDMDAARSFFQFSRMPDDFFRAPSPRSDTGVEVVVQAHPMQPGKNVGKINSYTVDPTSSDFSTPCLMYEKFVNITVKSLYPNPTVQLRKALNTNLDFLFQGVAAGCTQVFPYGRD
For the molecule B2, in [3] (setting [9]), the Km was found to be 244 ± 92 µM, the kcat came to 765 ± 76 s⁻¹ and the kcat/Km was 3.1e+06 ± 90000 M⁻¹ s⁻¹.

B3: Agrocybe aegerita peroxygenase AaeUPO1 variant SoLo (JaWa + F191S: V57A, L67F, V75I, F191S, G241D, I248V, R257K, F311L), SEQ ID NO: 42 (Cyclocybe aegerita; … (protein)
chain: EPGLPPGPLENSSAKLVNDEAHPWKPLRPGDIRGPCPGLNTLASHGYLPRNGVATPAQIINAVQEGFNFDNQAAIFATYAAHLVDGNLITDLLSIGRKTRLTGPDPPPPASVGGLNEHGTFEGDASMTRGDAFFGNNHDFNETLFEQLVDYSNRFGGGKYNLTVAGELRFKRIQDSIATNPNFSFVDFRFSTAYGETTFPANLFVDGRRDDGQLDMDAARSFFQFSRMPDDFFRAPSPRSDTGVEVVVQAHPMQPGKNVGKINSYTVDPTSSDFSTPCLMYEKFVNITVKSLYPNPTVQLRKALNTNLDFLFQGVAAGCTQVFPYGRD
B3: in series [1], the Km is 1,430 ± 153 μM, the kcat came out at 446 s⁻¹ and the kcat/Km was found to be 310000 ± 18000 M⁻¹ s⁻¹. Also, in series [3] (setting [8]), the Km is 391 ± 97 µM, the kcat came out at 497 ± 35 s⁻¹ and the kcat/Km turned out to be 1.3e+06 ± 20000 M⁻¹ s⁻¹.

B4: PaDa-I: AaeUPO1 mutant with L67F, I248V, F311L, V75I, V57A and evolved signal peptide, SEQ ID NO: 18; previously published parental (protein)
chain: MKYFPLFPTLVYAVGVVAFPDYASLAGLSQQELDAIIPTLEAREPGLPPGPLENSSAKLVNDEAHPWKPLRPGDIRGPCPGLNTLASHGYLPRNGVATPAQIINAVQEGFNFDNQAAIFATYAAHLVDGNLITDLLSIGRKTRLTGPDPPPPASVGGLNEHGTFEGDASMTRGDAFFGNNHDFNETLFEQLVDYSNRFGGGKYNLTVAGELRFKRIQDSIATNPNFSFVDFRFFTAYGETTFPANLFVDGRRDDGQLDMDAARSFFQFSRMPDDFFRAPSPRSGTGVEVVVQAHPMQPGRNVGKINSYTVDPTSSDFSTPCLMYEKFVNITVKSLYPNPTVQLRKALNTNLDFLFQGVAAGCTQVFPYGRD
As to B4, in the series “Optimum pH for ABTS”, the “Optimum pH for ABTS” value was 4.0. The same molecule yielded a pI in series [4] of 5.5. Besides, in [5], the “Thermal stability, T50” value amounted to 57.6 °C. The “Optimum pH for naphthalene” value in [6] came to 6.0. The “Optimum pH for DMP” value in the series “Optimum pH for DMP” is 6.0. Also, in [7] (setting [10]), the “regioselectivity, 1-naphthol” value is recorded as 92% and the “regioselectivity, 2-naphthol” value is on record as 8%. Moreover, the “time at which formation of the epoxide intermediary reached its maximum” value in [7] (270 minute reaction at pH 7.0) was around 40 min. Also, the “production of 1-naphthol” value in series [7] (270 minutes at pH 7.0 without stopping the reaction) came out at 0.14 mM. Moreover, the “total turnover numbers (TTN), 1-naphthol” value in [7] (calculated using the production value of 1-naphthol after 270 minutes) is recorded as 20,000 μmoles of product/μmoles of en. The “regioselectivity against 1-naphthol” value in series [7] (long reaction times, 270 minutes at pH 7.0 without stopping the reaction) came to 97%.
